Reference: PMC5347692, “Serpin E2 promotes breast cancer metastasis by remodeling the tumor matrix and polarizing tumor associated macrophages” (Oncotarget, 2016)

Molecular target: T1, human recombinant tPA (human, UniProt P00750 36-562)
T1 construct: The sentence 'Human recombinant serpinE2 and tPA were purchased from R&D' is read as human for both; source: bought: R&D
Test: SDS-stable complex seen by western blot; recombinant serpinE2 and tPA bound to each other beforehand, complex immunoprecipitated with Ab11 and Protein G, western blot with a serpinE2-specific antibody; complex band above uncomplexed serpinE2
Conditions: both partners purified

T1 sequence (P00750 36-562): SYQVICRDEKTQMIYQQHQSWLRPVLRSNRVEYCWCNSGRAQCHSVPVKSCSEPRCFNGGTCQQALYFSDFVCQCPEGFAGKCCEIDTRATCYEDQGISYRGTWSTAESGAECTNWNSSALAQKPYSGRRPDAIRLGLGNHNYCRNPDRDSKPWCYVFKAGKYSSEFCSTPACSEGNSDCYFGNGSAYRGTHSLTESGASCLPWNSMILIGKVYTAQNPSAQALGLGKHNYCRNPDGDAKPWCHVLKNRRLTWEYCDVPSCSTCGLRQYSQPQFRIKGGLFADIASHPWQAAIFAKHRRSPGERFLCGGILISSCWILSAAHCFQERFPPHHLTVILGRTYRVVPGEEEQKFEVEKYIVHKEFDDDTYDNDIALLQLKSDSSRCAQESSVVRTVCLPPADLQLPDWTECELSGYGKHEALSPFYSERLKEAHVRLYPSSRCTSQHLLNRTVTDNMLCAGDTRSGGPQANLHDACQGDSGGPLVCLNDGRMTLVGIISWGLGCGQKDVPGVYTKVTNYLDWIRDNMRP

B1: human recombinant serpinE2 (natural protein, UniProt P07093 20-398, looked up)
chain: SHFNPLSLEELGSNTGIQVFNQIVKSRPHDNIVISPHGIASVLGMLQLGADGRTKKQLAMVMRYGVNGVGKILKKINKAIVSKKNKDIVTVANAVFVKNASEIEVPFVTRNKDVFQCEVRNVNFEDPASACDSINAWVKNETRDMIDNLLSPDLIDGVLTRLVLVNAVYFKGLWKSRFQPENTKKRTFVAADGKSYQVPMLAQLSVFRCGSTSAPNDLWYNFIELPYHGESISMLIALPTESSTPLSAIIPHISTKTIDSWMSIMVPKRVQVILPKFTAVAQTDLKEPLKVLGITDMFDSSKANFAKITTGSENLHVSHILQKAKIEVSEDGTKASAATTAILIARSSPPWFIVDRPFLFFIRHNPTGAVLFMGQINKP
notes: serpinE2 (PN-1, protease nexin-1), human, recombinant, bought; With tPA it forms the serpin/protease complex that is seen as a band above uncomplexed serpinE2 on the western blot; also called PN-1; purified human serpinE2; source: bought: R&D
Q: Does B1 bind?
A: Result: binds
